This note sets out measurements from the supplement of paper PMC7125110.

B1: glmS ribozyme (parent)
chain: AUAAAAGCGCCAGAACUACAGAAAUGUAGUUGACGAGGAGGAGGUUUAUCGAAUUUUCGGCGGAUGCCUCCAAA

± gives the standard error. Fewer inactive variants are shown than the library holds.

Common to all, as to details: with glucosamine-6-phosphate
Variants of B1 are the subject of data set [1]. In words: self-cleavage kobs at 40 uM GlcN6P; higher = faster cleavage; RNA array. The method in brief:
(§1)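 Barcoded glmS ribozyme variants on sequenced MiSeq chips were transcribed in situ by E. coli RNA polymerase and tracked through a hybridised Cy3 probe at 37 °C. Glucosamine-6-phosphate (40 μM to 10 mM) in HEPES/KCl/Mg(OAc)2 buffer was flowed in, and tiles were imaged over ~14 h. Signals were normalised to baseline and to non-cleaving reference variants; per-tile medians were fit to one- or two-exponential decays to give kobs. kcat and KM came from weighted Michaelis–Menten fits across concentrations.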

In data set [2] the parent is B1. In words: self-cleavage kobs at 160 uM GlcN6P; higher = faster cleavage; RNA array. Summed up:
as §1

The variants in data set [3] derive from B1. Briefly: self-cleavage kobs at 640 uM GlcN6P; higher = faster cleavage; RNA array. The method in brief: as §1
Variants of B1 are the subject of data set [4]. Briefly: self-cleavage kobs at 2500 uM GlcN6P; higher = faster cleavage; RNA array. The method in brief:
as §1

Data set [5] covers variants of B1. Briefly: self-cleavage kobs at 10000 uM GlcN6P; higher = faster cleavage; RNA array. The method in brief: as §1

Turning to AUAAAAGCGCCAGAACUACAGAAAUGUAGUUAAUGAGGAGGAGGUUUAUUGAAUUUUCGGAGGAUACCUCCAAA, in data set [1], the “self-cleavage kobs at 40 uM GlcN6P” value turned out to be 4.94e-05 ± 2.4e-05 s⁻¹.

Consider AUAAAAGCGCCAGAACUACAGAAAUGUAGUUGACGAGGAGCAGUUUUAUCGAAUUUUCGGCGGAUGCCUCCAAA, for which, in data set [1], the “self-cleavage kobs at 40 uM GlcN6P” value was < 1e-05 s⁻¹. For the same variant, the “self-cleavage kobs at 160 uM GlcN6P” value in data set [2] is < 1e-05 s⁻¹. For the same variant, the “self-cleavage kobs at 640 uM GlcN6P” value in data set [3] was < 1e-05 s⁻¹. Further, the “self-cleavage kobs at 2500 uM GlcN6P” value in data set [4] was < 1e-05 s⁻¹. Further, in data set [5], the “self-cleavage kobs at 10000 uM GlcN6P” value was < 1e-05 s⁻¹.

Turning to AUAAAAGCGCCAGAAAUACAGAAAUGUAGUUGACGAGGAGGAGCUUUAUCGAAUUUUCGGCGGAUGCCUCCAAA, in data set [1], the “self-cleavage kobs at 40 uM GlcN6P” value is < 1e-05 s⁻¹. The “self-cleavage kobs at 160 uM GlcN6P” value in data set [2] was < 1e-05 s⁻¹. Besides, in data set [3], the “self-cleavage kobs at 640 uM GlcN6P” value is < 1e-05 s⁻¹. In addition, the “self-cleavage kobs at 10000 uM GlcN6P” value in data set [5] was < 1e-05 s⁻¹.

For the variant AUAAAAGCGCCAGAACUACAGAAAUGUAGUUGACGAGAAGGAGGUGUAUCGAAUUUUCGGCGGAUGCCUCCAAA, in data set [1], the “self-cleavage kobs at 40 uM GlcN6P” value is < 1e-05 s⁻¹. For the same variant, the “self-cleavage kobs at 160 uM GlcN6P” value in data set [2] was < 1e-05 s⁻¹. Further, the “self-cleavage kobs at 640 uM GlcN6P” value in data set [3] was < 1e-05 s⁻¹. For the same variant, the “self-cleavage kobs at 2500 uM GlcN6P” value in data set [4] was < 1e-05 s⁻¹. Further, the “self-cleavage kobs at 10000 uM GlcN6P” value in data set [5] is < 1e-05 s⁻¹.

As for AUAAAAGCGCCAGAACUACAGAAAUGUAGAUGACGAGGAGGAGGUUUAUCGACUUUUCGUCGGAUGCCUCCAAA, the “self-cleavage kobs at 40 uM GlcN6P” value in data set [1] is < 1e-05 s⁻¹. Further, the “self-cleavage kobs at 160 uM GlcN6P” value in data set [2] is < 1e-05 s⁻¹. The “self-cleavage kobs at 640 uM GlcN6P” value in data set [3] was < 1e-05 s⁻¹. In addition, the “self-cleavage kobs at 2500 uM GlcN6P” value in data set [4] was < 1e-05 s⁻¹.

Consider AUAAACUCGCCUGAUCUACAGAAAUGUAGUUGACGAGGAGGAGGUUUAUCGAAUUUUCGGCGGAUGCCUCCAAA, for which the “self-cleavage kobs at 40 uM GlcN6P” value in data set [1] is < 1e-05 s⁻¹. For the same variant, the “self-cleavage kobs at 10000 uM GlcN6P” value in data set [5] was < 1e-05 s⁻¹.

Take AUAAAAGCGCCAGAACUACAGAAAUGUAGUUGACGAGGAGGAGGUUUAUCGAAUUUUCGGCUGAUGGCUCCAAA: the “self-cleavage kobs at 40 uM GlcN6P” value in data set [1] is < 1e-05 s⁻¹. Moreover, the “self-cleavage kobs at 640 uM GlcN6P” value in data set [3] is < 1e-05 s⁻¹. For the same variant, in data set [5], the “self-cleavage kobs at 10000 uM GlcN6P” value was < 1e-05 s⁻¹.

For AUAAAUGCGCCAGAUCUACAGAAAUGUAGUUGACGAGGAGGAGGUUUAUCGAAUUUUCGGCGAAUGCCUUCAAA, in data set [1], the “self-cleavage kobs at 40 uM GlcN6P” value was < 1e-05 s⁻¹.

For the variant AUAAAAGCGCCAGAACUACAGAAAUGUAGUUGCCGAGGAGGAGGUUUAUCGAAUUUUCGGCGGAUGCCUCUAAA, the “self-cleavage kobs at 40 uM GlcN6P” value in data set [1] is < 1e-05 s⁻¹. Also, the “self-cleavage kobs at 160 uM GlcN6P” value in data set [2] is < 1e-05 s⁻¹. For the same variant, in data set [5], the “self-cleavage kobs at 10000 uM GlcN6P” value was 4.08e-05 ± 1e-05 s⁻¹.

Regarding AUAAAAGCGCCAGAACUACAGAAAUGUAGUUGACGAAGCUGAGGUUUAUCGAAUUUUCGGCGGAUGCCUCCAAA, the “self-cleavage kobs at 40 uM GlcN6P” value in data set [1] was < 1e-05 s⁻¹. In addition, the “self-cleavage kobs at 10000 uM GlcN6P” value in data set [5] came to 4.03e-05 ± 1e-05 s⁻¹.

AUAAAAGCGCCCGAACUACAGAAAUGUAGUUGAUGAGGAGGAGCUUUAUCGAAUUAACGGCGGAUGCCUCCAAA: the “self-cleavage kobs at 40 uM GlcN6P” value in data set [1] is < 1e-05 s⁻¹. The “self-cleavage kobs at 10000 uM GlcN6P” value in data set [5] was < 1e-05 s⁻¹.

Regarding AUAAAAGCGCCGGAACUACAGAAAUGUAGUUGACGAGAAGGAGGUUUAUCGAAUUUUCGGCGGAUUCCUCCAAA, the “self-cleavage kobs at 40 uM GlcN6P” value in data set [1] was < 1e-05 s⁻¹. For the same variant, in data set [2], the “self-cleavage kobs at 160 uM GlcN6P” value is < 1e-05 s⁻¹. The “self-cleavage kobs at 640 uM GlcN6P” value in data set [3] was < 1e-05 s⁻¹. For the same variant, the “self-cleavage kobs at 10000 uM GlcN6P” value in data set [5] was < 1e-05 s⁻¹.
